Laboratory results taken from US20230125550A1 (ARCELLX, published 2023).

T1: recombinant human CD123-Fc (human, UniProt P26951 19-305)
T1 construct: not shown: Fc part of CD123-Fc
T1 sequence: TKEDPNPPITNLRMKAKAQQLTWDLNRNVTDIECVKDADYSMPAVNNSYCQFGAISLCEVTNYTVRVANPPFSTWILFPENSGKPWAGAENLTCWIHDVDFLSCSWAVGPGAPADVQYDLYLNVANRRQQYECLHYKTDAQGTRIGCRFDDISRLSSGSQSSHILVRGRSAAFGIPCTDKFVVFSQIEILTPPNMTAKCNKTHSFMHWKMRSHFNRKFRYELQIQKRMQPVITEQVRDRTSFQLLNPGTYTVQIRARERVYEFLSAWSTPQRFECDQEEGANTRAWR

B1: SEQ ID NO: 509 (designed binder)
chain: MGSWYQFKTELAWIKDDLEALGGSEAELAWFEWVIADFEDDLQFYKGKGNPEVEALRKEAAAIRDELQAYRHN
notes: D domain, on phage
B2: SEQ ID NO: 510 (designed binder)
chain: MGSWFEFKDYLADIKWDLEALGGSEAELAIFEHDIAYFEHNLQQYKGKGNPEVEALRKEAAAIRDELQAYRHN
notes: D domain, on phage
B3: SEQ ID NO: 511 (designed binder)
chain: MGSWVRFKDFLADIKMDLEALGGSEAELADFEYHIAEFEHNLQEYKGKGNPEVEALRKEAAAIRDELQAYRHN
notes: D domain, on phage
B4: SEQ ID NO: 512 (designed binder)
chain: MGSWWLFKEQLALIKYNLEALGGSEAELADFESWIAEFEHQLQEYKGKGNPEVEALRKEAAAIRDELQAYRHN
notes: D domain, on phage
B5: SEQ ID NO: 513 (designed binder)
chain: MGSWHVFKTELADIKFYLEALGGSEAELAMFELWIAEFEHELQDYKGKGNPEVEALRKEAAAIRDELQAYRHN
notes: D domain, on phage
B6: SEQ ID NO: 514 (designed binder)
chain: MGSWIWFKDWLADIKDLLEALGGSEAELAEFEYDIALFEDQLQAYKGKGNPEVEALRKEAAAIRDELQAYRHN
notes: D domain, on phage
B7: SEQ ID NO: 515 (designed binder)
chain: MGSWGWFKHELAFIKADLEALGGSEAELAWFEEEIAEFEYELQFYKGKGNPEVEALRKEAAAIRDELQAYRHN
notes: D domain, on phage
B8: SEQ ID NO: 516 (designed binder)
chain: MGSWTWFKDNLAWIKEDLEALGGSEAELAWFELEIASFETALQDYKGKGNPEVEALRKEAAAIRDELQAYRHN
notes: D domain, on phage
B9: SEQ ID NO: 517 (designed binder)
chain: MGSWTYFKNDLAGIKEDLEALGGSEAELAQFEFEIAEFEWLLQDYKGKGNPEVEALRKEAAAIRDELQAYRHN
notes: D domain, on phage
B10: SEQ ID NO: 518 (designed binder)
chain: MGSWTWFKWDLADIKGDLEALGGSEAELAFFEEEIAEFEWRLQDYKGKGNPEVEALRKEAAAIRDELQAYRHN
notes: D domain, on phage
B11: SEQ ID NO: 519 (designed binder)
chain: MGSWLYFKEYLADIKSDLEALGGSEAELAWFEYEIADFEEQLQYYKGKGNPEVEALRKEAAAIRDELQAYRHN
notes: D domain, on phage
B12: SEQ ID NO: 520 (designed binder)
chain: MGSWHWFKEELAEIKEDLVALGGSEAELAWFEYDIAMFELSLQNYKGKGNPEVEALRKEAAAIRDELQAYRHN
notes: D domain, on phage
B13: SEQ ID NO: 521 (designed binder)
chain: MGSWNDFKEELAWIKFDLEALGGSEAELAWFEEDIAMFEQQLQAYKGKGNPEVEALRKEAAAIRDELQAYRHN
notes: D domain, on phage
B14: SEQ ID NO: 522 (designed binder)
chain: MGSWWDFKDWLAEIKHDLEALGGSEAELALFESEIADFEFGLQWYKGKGNPEVEALRKEAAAIRDELQAYRHN
notes: D domain, on phage
B15: SEQ ID NO: 523 (designed binder)
chain: MGSWDEFKEDLAHIKTDLEALGGSEAELALFEDEIADFEMYLQHYKGKGNPEVEALRKEAAAIRDELQAYRHN
notes: D domain, on phage
B16: SEQ ID NO: 524 (designed binder)
chain: MGSWDFFKYDLANINEWLEALGGSEAELADFEYGIADFELWLQDYKGKGNPEVEALRKEAAAIRDELQAYRHN
notes: D domain, on phage
B17: SEQ ID NO: 525 (designed binder)
chain: MGSWYQFKDDLAHIKHLLEALGGSEAELAVFEYIIADFESFLQIYKGKGNPEVEALRKEAAAIRDELQAYRHN
notes: D domain, on phage
B18: SEQ ID NO: 526 (designed binder)
chain: MGSWAEFKHDLADIKRELEALGGSEAELAWFELSIAFFEDELQHYKGKGNPEVEALRKEAAAIRDELQAYRHN
notes: D domain, on phage
B19: SEQ ID NO: 527 (designed binder)
chain: MGSWVVFKQDLADINHQLEALGGSEAELAWFEWEIADFEWELQHYKGKGNPEVEALRKEAAAIRDELQAYRHN
notes: D domain, on phage
B20: SEQ ID NO: 528 (designed binder)
chain: MGSWFQFKEFLAMITHNLEALGGSEAELAEFEHDIALFESELQQYKGKGNPEVEALRKEAAAIRDELQAYRHN
notes: D domain, on phage
B21: SEQ ID NO: 529 (designed binder)
chain: MGSWHWFKEDLAMITDVLEALGGSEAELAAFESEIAVFEADLQYYKGKGNPEVEALRKEAAAIRDELQAYRHN
notes: D domain, on phage
B22: SEQ ID NO: 530 (designed binder)
chain: MGSWSWFQWDLAGIKDHLEALGGSEAELAEFESEIAYFEDELQWYKGKGNPEVEALRKEAAAIRDELQAYRHN
notes: D domain, on phage
B23: SEQ ID NO: 531 (designed binder)
chain: MGSWTEFKGELAEIKWILEALGGSEAELAFFEDEIAAFEWDLQKYKGKGNPEVEALRKEAAAIRDELQAYRHN
notes: D domain, on phage
B24: SEQ ID NO: 532 (designed binder)
chain: MGSWFEFKWTLALIKQELEALGGSEAELADFEQEIAEFEWWLQTYKGKGNPEVEALRKEAAAIRDELQAYRHN
notes: D domain, on phage
B25: SEQ ID NO: 533 (designed binder)
chain: MGSWAEFKQRLAAIKTRLEALGGSEAELAAFMDEIMAFEWELWAYKGKGNPEVEALMNEAFAIDVELYAYRHN
notes: D domain, on phage
B26: SEQ ID NO: 534 (designed binder)
chain: MGSWAEFKQRLAAIKTRLEALGGSEAELAAFEWEIVAFFSELFAYKGKGNPEVEALRDEAIAIETELVAYRHN
notes: D domain, on phage
B27: SEQ ID NO: 535 (designed binder)
chain: MGSWWEFDHRLTAIDTRLQALGGSEAELAEFESSIAEFEWWLQDYKGKGNPEVEALFAEAEAIYVELDAYRHN
notes: D domain, on phage
B28: SEQ ID NO: 536 (designed binder)
chain: MGSWWEFQFRLYAIDQRLLALGGSEAELAEFEQDIADFEWMLQDYKGKGNPEVEALMLEADAIEAELKAYRHN
notes: D domain, on phage
B29: SEQ ID NO: 537 (designed binder)
chain: MGSWYEFDHRLDAIYQRLWALGGSEAELAEFEYGIAEFEEYLQDYKGKGNPEVEALISEAWAIEWELSAYRHN
notes: D domain, on phage
B30: SEQ ID NO: 538 (designed binder)
chain: MGSWYEFDMRLDAIWERLTALGGSEAELADFEQYIAEFERQLQDYKGKGNPEVEALFDEAWAIEDELYAYRHN
notes: D domain, on phage
B31: SEQ ID NO: 539 (designed binder)
chain: MGSWSEFDSRLDAIAYRLFALGGSEAELAQFEWIIADFEEDLQMYKGKGNPEVEALFSEAYAIEIELNAYRHN
notes: D domain, on phage
B32: SEQ ID NO: 540 (designed binder)
chain: MGSWYEFDDRLDAIAYRLNALGGSEAELAWFEWEIAEFELDLQWYKGKGNPEVEALVWEADAIEWELEAYRHN
notes: D domain, on phage
B33: SEQ ID NO: 541 (designed binder)
chain: MGSWFEFDERLDAIGSRLTALGGSEAELASFEFYIADFEEWLQQYKGKGNPEVEALEWEAFAIDEELGAYRHN
notes: D domain, on phage
B34: SEQ ID NO: 542 (designed binder)
chain: MGSWEEFDQRLDAIDVRLYALGGSEAELAEFEFDIAAFEEWLQLYKGKGNPEVEALNMEAFAITDELCAYRHN
notes: D domain, on phage
B35: SEQ ID NO: 543 (designed binder)
chain: MGSWEEFDVRLDAIFNRLWALGGSEAELAEFEFDIAWFEMDLQEYKGKGNPEVEALFDEAEAITNELVAYRHN
notes: D domain, on phage
B36: SEQ ID NO: 544 (designed binder)
chain: MGSWEEFDKRLDAITRRLMALGGSEAELAEFESTIAWFEWDLQEYKGKGNPEVEALDWEAYAIDYELGAYRHN
notes: D domain, on phage
B37: SEQ ID NO: 545 (designed binder)
chain: MGSWYEFDHRLEAIYDRLWALGGSEAELAFFEFDIADFEWDLQSYKGKGNPEVEALFDEAAAIGHELLAYRHN
notes: D domain, on phage
B38: SEQ ID NO: 546 (designed binder)
chain: MGSWNEFDDRLLAIWGRLDALGGSEAELAFFEEQIAGFEDELQWYKGKGNPEVEALDQEAEAIEKELWAYRHN
notes: D domain, on phage
B39: SEQ ID NO: 547 (designed binder)
chain: MGSWVEFDDRLDAIWERLDALGGSEAELAWFEEQIAVFEHQLQDYKGKGNPEVEALNQEAEAIDLELKAYRHN
notes: D domain, on phage
B40: SEQ ID NO: 548 (designed binder)
chain: MGSWTEFDDRLFAIYWRLDALGGSEAELAWFEEVIAEFENDLQVYKGKGNPEVEALDDEAHAISIELEAYRHN
notes: D domain, on phage
B41: SEQ ID NO: 549 (designed binder)
chain: MGSWSEFDQRLEAIWNRLDALGGSEAELADFEREIAYFENQLQWYKGKGNPEVEALNNEAFAIVDELGAYRHN
notes: D domain, on phage
B42: SEQ ID NO: 550 (designed binder)
chain: MGSWYEFDERLWAIWERLDALGGSEAELAHFEWVIADFENDLQWYKGKGNPEVEALEFEAEAIVTELHAYRHN
notes: D domain, on phage

Target: T1, recombinant human CD123-Fc
Experiment: phage ELISA, captured CD123-Fc
Summary of the method: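 Phage from BCMA panning colonies were rescued with VCSM13 helper phage and diluted 5× in blocking buffer. Plates coated with anti-human IgG1-Fc captured 5 nM target-Fc or IgG1-Fc, and binding was detected with HRP anti-M13. Ratio = A450 target/A450 IgG1-Fc, averaged over the clone's wells.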

Compared with B1, B2 is lower in ELISA_avg: 6.6 ratio A450 target/IgG1-Fc for the first, 3.8 ratio A450 target/IgG1-Fc for the second.

Compared with B3, B4 is lower in ELISA_avg: 5.8 ratio A450 target/IgG1-Fc for the first, 4.1 ratio A450 target/IgG1-Fc for the second.

First: B5
Second: B6
The ELISA_avg of the first is lower: 5.4 ratio A450 target/IgG1-Fc for the first, 7.3 ratio A450 target/IgG1-Fc for the second.

Compared with B7, B8 is higher in ELISA_avg: 3.3 ratio A450 target/IgG1-Fc for the first, 6.9 ratio A450 target/IgG1-Fc for the second.

First: B9
Second: B10
The ELISA_avg of the first is lower: 3.6 ratio A450 target/IgG1-Fc for the first, 5.9 ratio A450 target/IgG1-Fc for the second.

Compared with B11, B12 is lower in ELISA_avg: 3.7 ratio A450 target/IgG1-Fc for the first, 3.1 ratio A450 target/IgG1-Fc for the second.

Compared with B13, B14 is higher in ELISA_avg: 3.8 ratio A450 target/IgG1-Fc for the first, 4.2 ratio A450 target/IgG1-Fc for the second.

Going from B15 to B16, the ELISA_avg falls from 6.3 ratio A450 target/IgG1-Fc to 5.5 ratio A450 target/IgG1-Fc.

First: B17
Second: B18
The ELISA_avg of the first is higher: 4 ratio A450 target/IgG1-Fc for the first, 3.3 ratio A450 target/IgG1-Fc for the second.

Compared with B19, B20 is lower in ELISA_avg: 3.6 ratio A450 target/IgG1-Fc for the first, 3.1 ratio A450 target/IgG1-Fc for the second.

Going from B21 to B22, the ELISA_avg rises from 5.2 ratio A450 target/IgG1-Fc to 12.9 ratio A450 target/IgG1-Fc.

Compared with B23, B24 is lower in ELISA_avg: 8.2 ratio A450 target/IgG1-Fc for the first, 4.9 ratio A450 target/IgG1-Fc for the second.

Compared with B25, B26 is higher in ELISA_avg: 3.4 ratio A450 target/IgG1-Fc for the first, 3.6 ratio A450 target/IgG1-Fc for the second.

First: B27
Second: B28
The ELISA_avg of the first is higher: 4.3 ratio A450 target/IgG1-Fc for the first, 3.1 ratio A450 target/IgG1-Fc for the second.

Going from B29 to B30, the ELISA_avg rises from 4.6 ratio A450 target/IgG1-Fc to 13.7 ratio A450 target/IgG1-Fc.

Going from B31 to B32, the ELISA_avg rises from 4.3 ratio A450 target/IgG1-Fc to 4.6 ratio A450 target/IgG1-Fc.

Going from B33 to B34, the ELISA_avg falls from 3.8 ratio A450 target/IgG1-Fc to 3.6 ratio A450 target/IgG1-Fc.

Compared with B35, B36 is lower in ELISA_avg: 4.7 ratio A450 target/IgG1-Fc for the first, 4.5 ratio A450 target/IgG1-Fc for the second.

Compared with B37, B38 is lower in ELISA_avg: 4.5 ratio A450 target/IgG1-Fc for the first, 4.1 ratio A450 target/IgG1-Fc for the second.

Going from B39 to B40, the ELISA_avg rises from 5 ratio A450 target/IgG1-Fc to 6.4 ratio A450 target/IgG1-Fc.

Going from B41 to B42, the ELISA_avg rises from 3.4 ratio A450 target/IgG1-Fc to 3.6 ratio A450 target/IgG1-Fc.
